Measured values taken from publication PMC6804253, “Predicting and Experimentally Validating Hot-Spot Residues at Protein–Protein Interfaces” (ACS Chemical Biology, 2019).
Read-outs that look alike come from different tables or passages of the source.

B1: 1EMV LA33A (protein, UniProt P13479 1-86, looked up, variant L33A)
Colicin-E9 immunity protein: MELKHSISDYTEAEFLQLVTTICNADTSSEEEAVKLVTHFEEMTEHPSGSDLIYYPKEGDDDSPSGIVNTVKQWRAANGKSGFKQG
B2: 1EMV YA55A (protein, UniProt P13479 1-86, looked up, variant Y55A)
Colicin-E9 immunity protein: MELKHSISDYTEAEFLQLVTTICNADTSSEEELVKLVTHFEEMTEHPSGSDLIYAPKEGDDDSPSGIVNTVKQWRAANGKSGFKQG
B3: 1EMV IA53A (protein, UniProt P13479 1-86, looked up, variant I53A)
Colicin-E9 immunity protein: MELKHSISDYTEAEFLQLVTTICNADTSSEEELVKLVTHFEEMTEHPSGSDLAYYPKEGDDDSPSGIVNTVKQWRAANGKSGFKQG
B4: 1EMV VA68A (protein, UniProt P13479 1-86, looked up, variant V68A)
Colicin-E9 immunity protein: MELKHSISDYTEAEFLQLVTTICNADTSSEEELVKLVTHFEEMTEHPSGSDLIYYPKEGDDDSPSGIANTVKQWRAANGKSGFKQG
B5: 1EMV YA54A (protein, UniProt P13479 1-86, looked up, variant Y54A)
Colicin-E9 immunity protein: MELKHSISDYTEAEFLQLVTTICNADTSSEEELVKLVTHFEEMTEHPSGSDLIAYPKEGDDDSPSGIVNTVKQWRAANGKSGFKQG
B6: 1EMV VA34A (protein, UniProt P13479 1-86, looked up, variant V34A)
Colicin-E9 immunity protein: MELKHSISDYTEAEFLQLVTTICNADTSSEEELAKLVTHFEEMTEHPSGSDLIYYPKEGDDDSPSGIVNTVKQWRAANGKSGFKQG
B7: 1DAN GT43A (protein, UniProt P13726 33-251, looked up, variant G43A)
extracellular domain: SGTTNTVAAYNLTWKSTNFKTILEWEPKPVNQVYTVQISTKSADWKSKCFYTTDTECDLTDEIVKDVKQTYLARVFSYPAGNVESTGSAGEPLYENSPEFTPYLETNLGQPTIQSFEQVGTKVNVTVEDERTLVRRNNTFLSLRDVFGKDLIYTLYYWKSSSSGKKTAKTNTNEFLIDVDKGENYCFSVQAVIPSRTVNRKSTDSPVECMGQEKGEFRE
modifications: extracellular domain
B8: 1DFJ YI430A (protein, UniProt P10775 1-456, looked up, variant Y430A)
Ribonuclease inhibitor: MNLDIHCEQLSDARWTELLPLLQQYEVVRLDDCGLTEEHCKDIGSALRANPSLTELCLRTNELGDAGVHLVLQGLQSPTCKIQKLSLQNCSLTEAGCGVLPSTLRSLPTLRELHLSDNPLGDAGLRLLCEGLLDPQCHLEKLQLEYCRLTAASCEPLASVLRATRALKELTVSNNDIGEAGARVLGQGLADSACQLETLRLENCGLTPANCKDLCGIVASQASLRELDLGSNGLGDAGIAELCPGLLSPASRLKTLWLWECDITASGCRDLCRVLQAKETLKELSLAGNKLGDEGARLLCESLLQPGCQLESLWVKSCSLTAACCQHVSLMLTQNKHLLELQLSSNKLGDSGIQELCQALSQPGTTLRVLCLGDCEVTNSGCSSLASLLLANRSLRELDLSNNCVGDPGVLQLLGSLEQPGCALEQLVLADTYWTEEVEDRLQALEGSKPGLRVIS
B9: 1DFJ II455A (protein, UniProt P10775 1-456, looked up, variant I455A)
Ribonuclease inhibitor: MNLDIHCEQLSDARWTELLPLLQQYEVVRLDDCGLTEEHCKDIGSALRANPSLTELCLRTNELGDAGVHLVLQGLQSPTCKIQKLSLQNCSLTEAGCGVLPSTLRSLPTLRELHLSDNPLGDAGLRLLCEGLLDPQCHLEKLQLEYCRLTAASCEPLASVLRATRALKELTVSNNDIGEAGARVLGQGLADSACQLETLRLENCGLTPANCKDLCGIVASQASLRELDLGSNGLGDAGIAELCPGLLSPASRLKTLWLWECDITASGCRDLCRVLQAKETLKELSLAGNKLGDEGARLLCESLLQPGCQLESLWVKSCSLTAACCQHVSLMLTQNKHLLELQLSSNKLGDSGIQELCQALSQPGTTLRVLCLGDCEVTNSGCSSLASLLLANRSLRELDLSNNCVGDPGVLQLLGSLEQPGCALEQLVLYDTYWTEEVEDRLQALEGSKPGLRVAS
B10: 1DFJ YI433A (protein, UniProt P10775 1-456, looked up, variant Y433A)
Ribonuclease inhibitor: MNLDIHCEQLSDARWTELLPLLQQYEVVRLDDCGLTEEHCKDIGSALRANPSLTELCLRTNELGDAGVHLVLQGLQSPTCKIQKLSLQNCSLTEAGCGVLPSTLRSLPTLRELHLSDNPLGDAGLRLLCEGLLDPQCHLEKLQLEYCRLTAASCEPLASVLRATRALKELTVSNNDIGEAGARVLGQGLADSACQLETLRLENCGLTPANCKDLCGIVASQASLRELDLGSNGLGDAGIAELCPGLLSPASRLKTLWLWECDITASGCRDLCRVLQAKETLKELSLAGNKLGDEGARLLCESLLQPGCQLESLWVKSCSLTAACCQHVSLMLTQNKHLLELQLSSNKLGDSGIQELCQALSQPGTTLRVLCLGDCEVTNSGCSSLASLLLANRSLRELDLSNNCVGDPGVLQLLGSLEQPGCALEQLVLYDTAWTEEVEDRLQALEGSKPGLRVIS
B11: 1IAR IA5A (protein, UniProt P05112 25-153, looked up, variant I5A)
Interleukin-4: HKCDATLQEIIKTLNSLTEQKTLCTELTVTDIFAASKNTTEKETFCRAATVLRQFYSHHEKDTRCLGATAQQFHRHKQLIRFLKRLDRNLWGLAGLNSCPVKEANQSTLENFLERLKTIMREKYSKCSS
B12: 1IAR WA91A (protein, UniProt P05112 25-153, looked up, variant W91A)
Interleukin-4: HKCDITLQEIIKTLNSLTEQKTLCTELTVTDIFAASKNTTEKETFCRAATVLRQFYSHHEKDTRCLGATAQQFHRHKQLIRFLKRLDRNLAGLAGLNSCPVKEANQSTLENFLERLKTIMREKYSKCSS
B13: 1IAR IA11A (protein, UniProt P05112 25-153, looked up, variant I11A)
Interleukin-4: HKCDITLQEIAKTLNSLTEQKTLCTELTVTDIFAASKNTTEKETFCRAATVLRQFYSHHEKDTRCLGATAQQFHRHKQLIRFLKRLDRNLWGLAGLNSCPVKEANQSTLENFLERLKTIMREKYSKCSS
B14: 1IAR FA82A (protein, UniProt P05112 25-153, looked up, variant F82A)
Interleukin-4: HKCDITLQEIIKTLNSLTEQKTLCTELTVTDIFAASKNTTEKETFCRAATVLRQFYSHHEKDTRCLGATAQQFHRHKQLIRALKRLDRNLWGLAGLNSCPVKEANQSTLENFLERLKTIMREKYSKCSS
B15: 1JRH YI49A (protein, UniProt P15260 18-245, looked up, variant Y49A)
extracellular domain: EMGTADLGPSSVPTPTNVTIESYNMNPIVYWEYQIMPQVPVFTVEVKNAGVKNSEWIDACINISHHYCNISDHVGDPSNSLWVRVKARVGQKESAYAKSEEFAVCRDGKIGPPKLDIRKEEKQIMIDIFHPSVFVNGDEQEVDYDPETTCYIRVYNVYVRMNGSEIQYKILTQKEDDCDEIQCQLAIPVSSLNSQYCVSAEGVLHVWGVTTEKSKEVCITIFNSSIKG
modifications: extracellular domain
B16: 1JRH VI51A (protein, UniProt P15260 18-245, looked up, variant V51A)
extracellular domain: EMGTADLGPSSVPTPTNVTIESYNMNPIVYWEYQIMPQVPVFTVEVKNYGAKNSEWIDACINISHHYCNISDHVGDPSNSLWVRVKARVGQKESAYAKSEEFAVCRDGKIGPPKLDIRKEEKQIMIDIFHPSVFVNGDEQEVDYDPETTCYIRVYNVYVRMNGSEIQYKILTQKEDDCDEIQCQLAIPVSSLNSQYCVSAEGVLHVWGVTTEKSKEVCITIFNSSIKG
modifications: extracellular domain
B17: 1JRH WI82A (protein, UniProt P15260 18-245, looked up, variant W82A)
extracellular domain: EMGTADLGPSSVPTPTNVTIESYNMNPIVYWEYQIMPQVPVFTVEVKNYGVKNSEWIDACINISHHYCNISDHVGDPSNSLAVRVKARVGQKESAYAKSEEFAVCRDGKIGPPKLDIRKEEKQIMIDIFHPSVFVNGDEQEVDYDPETTCYIRVYNVYVRMNGSEIQYKILTQKEDDCDEIQCQLAIPVSSLNSQYCVSAEGVLHVWGVTTEKSKEVCITIFNSSIKG
modifications: extracellular domain

What was measured:
[1] = system: PPIs of the SKEMPI data set (by PDBID); conditions: single mutation to alanine, ref SKEMPI, cited from earlier work
[2] = system: PPIs of the SKEMPI data set (by PDBID); assay: SKEMPI experimental ΔΔG, single mutations to alanine; type: binding; conditions: for sk_class (class of SKEMPI experimental ΔΔG): class by ΔΔG threshold 4.184 kJ/mol, ref SKEMPI; for sk_class: class of the SKEMPI experimental ΔΔG
[3] = PPI given by PDBID, sheet sortedByGroup, r_group FAMILYVW
[4] = sheet sortedByGroup, r_group FAMILYVW

Row | Molecule | sk_ddG_kJ (SKEMPI experimental ΔΔG) [1, 3] [kJ] | sk_class (class of SKEMPI experimental ΔΔG) [2] | sk_ddG_kJ (SKEMPI experimental ΔΔG) ([1]; complex given by PDBID, mutation by mut_pdb) [kJ] | sk_class [2] | sk_ddG_kJ (SKEMPI experimental ΔΔG) [1, 4] [kJ]
1 | B1 | 14.31 | Positive (positive (a hot residue) ΔΔG ≥ 4.184 kJ/mol) | – | – | –
2 | B2 | 19.41 | Positive (positive (a hot residue) ΔΔG ≥ 4.184 kJ/mol) | – | – | –
3 | B3 | 3.56 | Neutral (neutral (little effect) 4.184 kJ/mol < ΔΔG > −4.184 kJ/mol) | – | – | –
4 | B4 | 7.78 | Positive (positive (a hot residue) ΔΔG ≥ 4.184 kJ/mol) | – | – | –
5 | B5 | 20.21 | Positive (positive (a hot residue) ΔΔG ≥ 4.184 kJ/mol) | – | – | –
6 | B6 | 10.79 | Positive (positive (a hot residue) ΔΔG ≥ 4.184 kJ/mol) | – | – | –
7 | B7 | – | – | 0.29 | Neutral (neutral (little effect) 4.184 kJ/mol < ΔΔG > −4.184 kJ/mol) | –
8 | B8 | – | – | – | Positive (positive (a hot residue) ΔΔG ≥ 4.184 kJ/mol) | 24.89
9 | B9 | – | – | – | Neutral (neutral (little effect) 4.184 kJ/mol < ΔΔG > −4.184 kJ/mol) | 1.38
10 | B10 | – | – | – | Positive (positive (a hot residue) ΔΔG ≥ 4.184 kJ/mol) | 10.96
11 | B11 | 4.90 | Positive (positive (a hot residue) ΔΔG ≥ 4.184 kJ/mol) | – | – | –
12 | B12 | 3.05 | Neutral (neutral (little effect) 4.184 kJ/mol < ΔΔG > −4.184 kJ/mol) | – | – | –
13 | B13 | 0.29 | Neutral (neutral (little effect) 4.184 kJ/mol < ΔΔG > −4.184 kJ/mol) | – | – | –
14 | B14 | -0.38 | Neutral (neutral (little effect) 4.184 kJ/mol < ΔΔG > −4.184 kJ/mol) | – | – | –
15 | B15 | 15.31 | Positive (positive (a hot residue) ΔΔG ≥ 4.184 kJ/mol) | – | – | –
16 | B16 | 6.19 | Positive (positive (a hot residue) ΔΔG ≥ 4.184 kJ/mol) | – | – | –
17 | B17 | 18.12 | Positive (positive (a hot residue) ΔΔG ≥ 4.184 kJ/mol) | – | – | –
